Experimental data reported in publication PMC6107277, “Distinct substrate specificity and physicochemical characterization of native human hepatic thymidine phosphorylase” (PLoS ONE, 2018).

Key:
[1] = biological target: the molecule itself; experiment: AUC; sedimentation equilibrium, Beckman XL-A, 15,000 rpm, 20°C, Buffer A, 0.4, 0.2 and 0.1 mg protein/mL, absorbance at 278 nm; global fit to a monomer-dimer-tetramer association model; constants for monomer to dimer (1,2) and dimer to tetramer (2,4)
[2] = biological target: the molecule itself; experiment: SEC + native gel or EMSA; hydroxyapatite homogeneously purified TP (first peak) on Sephadex G-100 in Buffer A (20 mM potassium phosphate pH 8.0, 1 mM DTT, 1 mM EDTA, 1 mM PMSF), 4°C, calibrated with standard proteins; native-PAGE on 10% gel; native about 100 kDa against about 52 kDa on SDS-PAGE

B1: native human hepatic thymidine phosphorylase (enzyme, human (endogenous in liver), UniProt P19971 11-482, looked up)
chain: APPAPGDFSGEGSQGLPDPSPEPKQLPELIRMKRDGGRLSEADIRGFVAAVVNGSAQGAQIGAMLMAIRLRGMDLEETSVLTQALAQSGQQLEWPEAWRQQLVDKHSTGGVGDKVSLVLAPALAACGCKVPMISGRGLGHTGGTLDKLESIPGFNVIQSPEQMQVLLDQAGCCIVGQSEQLVPADGILYAARDVTATVDSLPLITASILSKKLVEGLSALVVDVKFGGAAVFPNQEQARELAKTLVGVGASLGLRVAAALTAMDKPLGRCVGHALEVEEALLCMDGAGPPDLRDLVTTLGGALLWLSGHAGTQAQGAARVAAALDDGSALGRFERMLAAQGVDPGLARALCSGSPAERRQLLPRAREQEELLAPADGTVELVRALPLALVLHELGAGRSRAGEPLRLGVGAELLVDVGQRLRRGTPWLRVHRDGPALSGPQSRALQEALVLSDRAPFAAPSPFAELVLPPQQ
modifications: N-terminal blocked by an unknown moiety (neither N-formyl nor pyrrolidone carboxylic acid)
notes: thymidine phosphorylase / PD-ECGF, human liver, native subunit of about 50 kDa (49,882 by electrospray MS); DPSPEPKQ = 28-35; Native tissue protein; also called TP; human liver TP; source: purified from human liver (autopsy material) by DEAE-cellulose, Phenyl Sepharose CL-4B and hydroxyapatite chromatography; also used as DEAE-cellulose partially purified fraction and as 50,000 x g liver cytosol
Ka (1,2), monomer to dimer [1]: 581000 M⁻¹ | Ka (2,4), dimer to tetramer [1]: 10100 M⁻¹ | stoichiometry N [2]: 2
